Results reported in US20190177371A1 (published 2019).
Values belong to the binder of their own block, whether it stands above or below them.

Key:
[1] = target: T1, human melanocortin 1 receptor (human, UniProt Q01726 1-317); experiment: competition binding vs [125I]-NDP-α-MSH, A375 human melanoma cells
T1 construct: whole, on cells; also called hMC1R; hMC1 receptor

[2] = target: T1, human melanocortin 1 receptor; experiment: cell-based or functional assay
[3] = target: T1, human melanocortin 1 receptor; experiment: competition binding vs [125I]-NDP-α-MSH, whole HEK293 cells stably expressing the receptor

T1 sequence (Q01726 whole entry): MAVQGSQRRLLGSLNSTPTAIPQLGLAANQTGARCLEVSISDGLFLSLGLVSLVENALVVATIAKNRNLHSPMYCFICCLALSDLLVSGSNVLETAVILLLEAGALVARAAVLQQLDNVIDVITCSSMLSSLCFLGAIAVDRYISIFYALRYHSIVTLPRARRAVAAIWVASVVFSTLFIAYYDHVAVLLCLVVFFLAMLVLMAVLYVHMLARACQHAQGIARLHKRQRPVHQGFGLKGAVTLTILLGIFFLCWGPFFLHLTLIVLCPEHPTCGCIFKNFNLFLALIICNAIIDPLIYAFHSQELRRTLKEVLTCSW

IC50 [1]: 14.8 nM
EC50 (cAMP) [2]: 22 nM
B1: Peptide 15: Ac-Nle-c[Asp-(NMe)His-nal-(NMe)Arg-Trp-Lys]-NH2 (peptide)
peptide: LDHXRWK
modifications: N-terminal acetyl; Nle at 4; D-Nal(2') (nal) at 7; side-chain lactam Asp5-Lys10; C-terminal amide; backbone N-methyl on His6 and Arg8 (α-MSH 4-10 numbering)

EC50 (cAMP) [2]: 20 nM
B2: Peptide 28: Ac-Nle-c[Asp-(NMe)His-nal-(NMe)Arg-(NMe)Trp-(NMe)Lys]-NH2 (peptide)
peptide: LDHXRWK
modifications: N-terminal acetyl; Nle at 4; D-Nal(2') (nal) at 7; side-chain lactam Asp5-Lys10; C-terminal amide; backbone N-methyl on His6, Arg8, Trp9 and Lys10 (α-MSH 4-10 numbering)

IC50 [3]: 68 nM
B3: Peptide 32: Ac-Nle-c[Asp-(NMe)His-(NMe)nal-(NMe)Arg-(NMe)Trp-(NMe)Lys]-NH2 (peptide)
peptide: LDHXRWK
modifications: N-terminal acetyl; Nle at 4; D-Nal(2') (nal) at 7; side-chain lactam Asp5-Lys10; C-terminal amide; backbone N-methyl on His6, nal7, Arg8, Trp9 and Lys10 (α-MSH 4-10 numbering)
notes: also called Penta-N-methylated compound 32
